Assay results taken from US20210284724A1 (I MAB BIOPHARMA US, published 2021).
Changes are numbered by the printed parent chain. Numbers in names are those of the source. Read-outs that look alike come from different tables or passages of the source.

B1: 71F4A3-VH1VL1 (Hz71F4) (D54E) humanized IgG1 (antibody, V domains shown)
VH: EVQLVESGGGLVQPGGSLRLSCAASGIDFSRYWMSWVRQAPGKGLEWVAEINPESSTINYAPSLKDRFTISRDNAKNSLYLQMNSLRAEDTAVYYCARQDDYEYYAMDYWGQGTTVTVSS
VL: DIQMTQSPSSLSASVGDRVTITCKASQDVNTGVAWYQQKPGKAPKLLIYSASYRYTGVPSRFSGSGSGTDFTFTISSLQPEDIATYYCQQYYSTPLTFGGGTKLEIK
notes: Full length IgG1, human gamma 1 and kappa; also called Hz71F4A3
B2: 71F4A3-VH1VL2 (D54E) humanized IgG1 (antibody, V domains shown)
VH: B1 VH
VL: B1 VL with L78V
notes: Full length IgG1, human gamma 1 and kappa constant domains
B3: 005-3-18 (antibody, V domains shown)
VH: B1 VH with A106T
VL: B1 VL with A25V, Y92W
B4: 005-2-45 (antibody, V domains shown)
VH: B1 VH with Y102T, E103R
VL: B1 VL
B5: 005-3-23 (antibody, V domains shown)
VH: B1 VH with D100E, M107L
VL: B1 VL with A34Y, Y91G
B6: 411A11E9 chimeric human IgG1 antibody (antibody, V domains shown)
VH: EVQLVESGGGLVQPGGSLKLSCVVSGFTFSDYYMAWVRQTPTKGLEWVASINYDGGDTYYRDSVKGRFTVSRNNAKSSLFLQMDSLRSEDTATYYCKTEEDYDGSYVMDAWGQGASVIVSS
VL: DIQMTQSPSFLSASVGDRVTISCKASQNINKELTWYQQKLGKAPKRLIYNTNILQTGIPSRFSGSGSNTDYTLTISSLQPEDFATYFCLQQSSLYTFGAGTKLELK
notes: Chimeric human IgG1
B7: 414D10F5 chimeric human IgG1 antibody (antibody, V domains shown)
VH: EVQLAESGGGLVQPGRSLKLSCSASGFTFSDYYMAWFRQAPPKGLEWVASISYDGGDSFYRDSVKGRFTISRDNAKSSLYLQMDSLRSEDTATYYCTTEEDYSGSFPDYWGQGVMVTVSS
VL: DIQMTQSPSFLSASVGDRVTINCKASQNINKYLNWYQQKLGEAPKRLIYDTNNLQAGIPSRFSGSGSGTDYTLTINSLQPEDFATYFCLQHNSLYTFGGGTKLELK
notes: Chimeric human IgG1
B8: 64C10G1 chimeric human IgG1 antibody (antibody, V domains shown)
VH: EVQLVESGGGLVKPGGSLKLSCAASGFTFSSYAMSWVRQTPEKRLEWVATISDGGSDAYYPDNVKGRFTISRDNAKNNLYLQMSHLKSEDTAMYYCARDYYGSGYEDSPMDYWGQGTSVTVSS
VL: DIQMTQSPSSLSASLGGKVTITCKASQDINKYIAWYQHKPGKGPRLLIHYTSTLQPGIPSRFSGSGSGRDYSFSISNLEPEDFATYYCLQYDNLYTFGGGTKLEIK
notes: Chimeric human IgG1; also called chimeric 64C10G1
B9: 1H3A11 chimeric human IgG1 antibody (antibody, V domains shown)
VH: B8 VH with A58T, G104S, S108Y, P109A
VL: B8 VL with A34T, F83I
notes: Chimeric human IgG1
B10: 71F4A3 chimeric human IgG1 antibody (antibody, V domains shown)
VH: EVKLLQSGGGLVQPGGSLKLSCAASGIDFSRYWMSWVRRAPGKGLEWIGEINPDSSTINYAPSLKDKFIISRDNAKNTLYLQMSKVRSEDTALYYCARQDDYEYYAMDYWGQGTSVTVSS
VL: DIVMTQSHKSMSTSVGDRVSITCKASQDVNTGVAWYRQKPGQSPKLLIYSASYRYTGVPDRFTGSGSGTDFTFTISSVQAEDLAVYYCQQYYSTPLTFGAGTKLELK
notes: Chimeric human IgG1; also called chimeric 71F4A3
B11: 329F2E1 chimeric human IgG1 antibody (antibody, V domains shown)
VH: B10 VH with E103D
VL: B10 VL with S10F, N30S, R37Q, G68R, A80T, L83P, Q89H, S93T, T94I, K103E
notes: Chimeric human IgG1
B12: 415A3D1 chimeric human IgG1 antibody (antibody, V domains shown)
VH: EVKLLESGGGLVQAGGSMRLSCGAFGFTVTDFYINWIRQPAGKAPEWLGFMRNKANGYTTEYNPSVKGRFTISRNNTQNMPYLQMNTLRTEDTAIYYCARSRYNADDYYVGVMDVWGQGASVTVSS
VL: DIQMTQFPASLSASLGETVSIECLASEDIYNNLAWYQQKPGKSPQLLIYYTNSLQDGVPSRFSGTGSGTQYSLKINSLESEDAATYFCLQDSEYPWTFGGGTKLKLK
notes: Chimeric human IgG1; label 415A3D1 read as clone 415A3D1F4
B13: 64C10G1-VH1VL3 (D53E, D107E) humanized IgG1 (antibody, V domains shown)
VH: EVQLVESGGGLVQPGGSLRLSCAASGFTFSSYAMSWVRQAPGKGLEWVATISEGGSDAYYPDNVKGRFTISRDNAKNSLYLQMNSLRAEDTAVYYCARDYYGSGYEESPMDYWGQGTLVTVSS
VL: DIQMTQSPSSLSASVGDRVTITCKASQDINKYIAWYQQKPGKAPKLLIHYTSTLQPGIPSRFSGSGSGTDFTFTISSLQPEDFATYYCLQYDNLYTFGGGTKLEIK
notes: as for B2
B14: 21H12D9 chimeric human IgG1 antibody (antibody, V domains shown)
VH: EVQLQQSGPVLVRPGASVKMSCKASGYTFTDYYMNWVKQSHGKSLEWIGVINPNNGGTTYKEKFKGKATLTVDKSSGTAYMELNSLTSEDSAVYYCARDDYDAGYWGQGTTLTVSS
VL: DIVMTQFQKFMSTTVGDRVSITCKASQNVDTAVAWYQHKPGQSPKLLIYSASHRYTGVPDRFTGSGSGTDFTLTISNVQSEDLADYFCQQYTDFPLTFGAGTKLELK
notes: Chimeric human IgG1

Legend:
[1] = target: T1, human CXCL13 (human, UniProt O43927 23-109); experiment: SPR Biacore T200
T1 construct: also called huCXCL13; rhCXCL13
T1 sequence (looked up): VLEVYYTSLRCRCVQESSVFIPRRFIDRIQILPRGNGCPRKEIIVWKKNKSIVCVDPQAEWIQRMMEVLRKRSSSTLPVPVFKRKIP
From the text: In the first approach, mutations were chosen to target the hotspots in LCDR1, HCDR2 and HCDR3. Usually, CDR3 contributes most to antigen binding and heavy chain is more important than light chain for antigen binding. Moreover, LCDR1 is important for antigen binding. For the first trial, random mutations were targeted to hotspots in LCDR1, HCDR2 and HCDR3. Eliminate hotspots that code for conserved and buried amino acids in CDRs. […] After finishing construction of phage library, antigen CXCL13 screening was followed. Antibodies of these sequences were generated, and affinity testing was performed by Biacore T200.

[2] = target: T1, human CXCL13; experiment: SPR Biacore T200; remark: listed apart in the source
Experimental: (§1) In the second approach, mutations were carried out by multiple libraries including 4 different sub libraries, such as saturated mutation libraries by CDR walking for CDR L1, CDR L3, CDR H3 or CDR L2, CDR H1, CDR H2 and saturated mutation libraries by three aa mutated continuously for CDR H3 or CDR L3. After finishing construction of phage sub libraries, antigen CXCL13 screening followed. Antibodies of these sequences were generated, and affinity testing was performed by Biacore T200. To further optimize the antibodies, the lead clones were then back mutated to its humanized counterpart one aa by one aa. Sequences were generated and synthesized for antibodies. Affinity was tested by Biacore T200.

[3] = target: T1, human CXCL13; experiment: SPR Biacore T200; remark: listed apart in the source
Experimental: as §1

[4] = target: T1, human CXCL13; experiment: ELISA, huCXCL13 coated on the plate, full length humanized IgG1 titrated, OD450
[5] = target: T1, human CXCL13; experiment: ELISA, coated antigen, chimeric IgG1
Experimental: (§2) Elisa based binding assay. […] Briefly, 100 μl of human CXCL13 or cynomolgus CXCL13 was coated at 0.5 μg/ml overnight and then blocked by 200 μl of 5% BSA in PBS. Serial diluted antibodies were incubated with the coated antigen for 30 min at RT. The resulting plates were washed with PBS/T and incubated with goat anti-human IgG Fc-HRP for 30 min RT. The plates were developed with TMB substrate after washing with 1×PBST for 5 times and reaction stopped with 1N HCl and analyzed by spectrophotometer at OD 450-630 nm.

[6] = target: T2, cynomolgus CXCL13 (cynomolgus, UniProt H6WS58 23-109); experiment: ELISA, coated antigen, chimeric IgG1
T2 construct: also called cynoCXCL13; Cyno CXCL13
T2 sequence: T1 sequence (looked up) with S8H, L32S, I52V, M65I, V68M, R72K, L77P
Experimental: as §2

[7] = target: T1, human CXCL13; experiment: cell-based blocking ELISA, CXCL13 to CHO-K1-CXCR5
Experimental: This example tested the blocking of the anti-CXCL13 chimeric antibodies to CHO-K1-CXCR5 cells. Briefly, 5×10⁴ CHO-K1-CXCR5 cells were plated in 96-well plate with 100 μl of culture medium and incubated at 37° C. overnight. Cells were fixed with 100 μl of 2% PFA at RT for 1 hr after washing with PBS for 1 time. Samples were blocked with 1% BSA in PBST for 1 hr at RT. Antibodies were serial diluted from 50 μg/ml by 3-fold with 1% BSA/PBST and pre-incubated with equal volume of 0.3 μg/ml human CXCL13 for 30 min at RT. 100 μl of antibody-antigen complex was transferred into each cell wells for 30 min at RT. Samples were washed with 1×PBST for 3 times and 100 μl of 3 μg/ml of human Mab5261 antibody was added into each well to capture human CXCL13 and anti-human Fc-HRP was used to indirectly detect human CXCL13 when it bound to CHO-K1-CXCR5 cells.
Then read at 450 nm. […] Among all clones, 415A3D1, 64C10G1, 1H3A11, 414D10F5, 411A11E9, 21H12D9, 71F4A3, 329F2E1 show completely blocking activity and 408E3F3, 19H7E10, 339A6E7 appeared to be partial blockers.

[8] = target: T1, human CXCL13; experiment: ELISA, huCXCL13 coated on the plate, chimeric IgG1 titrated, OD450
In short: (§3)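 Plates were coated overnight with 100 μl of human CXCL13 at 0.5 μg/ml, then blocked with 200 μl of 5% BSA in PBS. Serial dilutions of IgG1 antibodies were allowed to bind for 30 min at room temperature, and after washing with PBS/T, goat anti-human IgG Fc-HRP was applied for 30 min at room temperature. The EC50 was derived from the antibody titration.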

[9] = target: T1, human CXCL13; experiment: as above; remark: listed apart in the source
In short: as §3

[10] = target: T1, human CXCL13; experiment: ELISA, huCXCL13 coated on the plate, full length humanized IgG1 titrated, OD450; remark: listed apart in the source
In short: as §3

| Binder | EC50 [5] [µg/mL] | EC50 [6] [µg/mL] | IC50 [7] [µg/mL] | other results |
| --- | --- | --- | --- | --- |
| B1 |  |  |  | apparent kon (pooled screen) [1]: 377000 M⁻¹ s⁻¹; apparent koff (pooled screen) [2]: 0.00126 s⁻¹; apparent Kd (pooled screen) [3]: 2.58 nM; apparent koff (pooled screen) [3]: 0.000645 s⁻¹; apparent kon (pooled screen) [3]: 250000 M⁻¹ s⁻¹; apparent EC50 (pooled screen) [4]: 0.108 nM |
| B2 |  |  |  | EC50 [4]: 0.0961 nM |
| B3 |  |  |  | koff [2]: 0.000158 s⁻¹; Kd [3]: 1.24 nM; koff [3]: 0.000153 s⁻¹; kon [3]: 124000 M⁻¹ s⁻¹ |
| B4 |  |  |  | koff [2]: 0.000776 s⁻¹ |
| B5 |  |  |  | koff [2]: 0.000403 s⁻¹ |
| B6 | 0.0485 | 0.1 | 1.71 |  |
| B7 | 0.0628 | 1.19 | 1.26 |  |
| B8 | 0.0401 | 0.0563 | 1.1 | EC50 [8]: 0.0305 nM |
| B9 | 0.0553 | 0.144 | 1.19 |  |
| B10 | 0.0381 | 0.0814 | 3.02 | EC50 [9]: 0.116 nM |
| B11 | 0.0511 | 0.0416 | 3.55 |  |
| B12 | 0.0729 | 0.0469 | 0.985 |  |
| B13 |  |  |  | EC50 [10]: 0.0664 nM |
| B14 | 0.0536 | 0.0488 | 1.89 |  |
